In general, Kd refers to the constant that tells how readily two partners part at equilibrium.

This note sets out measurements from article PMC5519978, “DNA binding drives the association of BRG1/hBRM bromodomains with nucleosomes”.

Data set [1] addresses T1, BRG1 AT-BRD (human, UniProt P51532 1434-1569). Briefly: NMR titration; 25 C; FA and NMR: 50 mM K phosphate pH 7.0, 50 mM KCl, 0.5 mM EDTA, 1 mM DTT (NMR +10% D2O), 20 C (BRG1 NMR 25 C); EMSA: 150 nM DNA/NCP, 10 mM K phosphate, 10 mM KCl, on ice, 0.2x TBE gel. Particulars: protein: recombinant; tags: pDEST15 or pGEX6p1 (GST); blunt. (In general: A gel shift assay detects complexes by their altered migration in electrophoresis.)

The next data set addresses hBRM-A AT-BRD (human, UniProt P51531 1358-1508). In words: NMR titration; 1:1 stoichiometric; FA and NMR: 50 mM K phosphate pH 7.0, 50 mM KCl, 0.5 mM EDTA, 1 mM DTT (NMR +10% D2O), 20 C (BRG1 NMR 25 C); EMSA: 150 nM DNA/NCP, 10 mM K phosphate, 10 mM KCl, on ice, 0.2x TBE gel. Particulars: protein: recombinant; tags: pDEST15 (GST) with PreScission site; blunt.
Data set [2] concerns the target T1, BRG1 AT-BRD. In words: fluorescence anisotropy; FA and NMR: 50 mM K phosphate pH 7.0, 50 mM KCl, 0.5 mM EDTA, 1 mM DTT (NMR +10% D2O), 20 C (BRG1 NMR 25 C); EMSA: 150 nM DNA/NCP, 10 mM K phosphate, 10 mM KCl, on ice, 0.2x TBE gel. Particulars: protein: recombinant; tags: pDEST15 or pGEX6p1 (GST); label: 5' 6-FAM on strand 1; blunt. For orientation: Fluorescence polarisation rises when a labelled molecule tumbles more slowly, as on binding a larger partner.

T1 sequence (P51532 1434-1569): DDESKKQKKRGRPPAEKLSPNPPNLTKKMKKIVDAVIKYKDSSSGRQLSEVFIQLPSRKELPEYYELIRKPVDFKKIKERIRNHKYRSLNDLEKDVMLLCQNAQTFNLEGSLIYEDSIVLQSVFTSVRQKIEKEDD
Sequence of hBRM-A AT-BRD (P51531 1358-1508): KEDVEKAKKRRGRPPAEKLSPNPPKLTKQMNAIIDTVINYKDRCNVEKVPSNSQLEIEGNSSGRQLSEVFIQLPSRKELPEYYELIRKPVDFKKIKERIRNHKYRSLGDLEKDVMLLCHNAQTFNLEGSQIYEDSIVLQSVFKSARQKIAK

B1: DNAII (dsDNA)
DNA 1: CGTAGACAGCT
DNA 2: AGCTGTCTACG
Regarding B1, the binding result in the data set with BRG1 AT-BRD [1] is on record as “binds”.

B2: DNAIII (dsDNA)
DNA 1: CCTCAATTGGTCGTAG
DNA 2: CTACGACCAATTGAGG
On to B2, for which, in the data set with hBRM-A AT-BRD, the binding result was “binds”.

B3: DNAII.FA (dsDNA)
DNA 1: CGTAGACAGCTC
DNA 2: GAGCTGTCTACG
As for B3, the Kd in the data set with BRG1 AT-BRD [2] worked out at 40 ± 10 µM.

B4: DNAI (dsDNA)
DNA 1: CTCAATTGGT
DNA 2: ACCAATTGAG
B4: the binding result with hBRM-A AT-BRD and in the data set with BRG1 AT-BRD [1] was “binds” throughout.

B5: DNAI.FA (dsDNA)
DNA 1: CCTCAATTGGTC
DNA 2: GACCAATTGAGG
Turning to B5, the Kd with BRG1 AT-BRD [2] turned out to be 16 ± 2 µM.
